“Also recorded” adds a separate entry of the source. Like-named read-outs stand apart in the source and are kept apart here.
Assays:
[1] = Kinetic analysis of purified recombinant enzymes, PDH activity; type: biochemical
Method: (§1) Kinetic parameters of purified recombinant GmPDH1 and MtPDH1 for ADH activity (Table 3) were determined from assays conducted using varying L-arogenate concentrations (39 μM to 5 mM). Assays were incubated for 15 min with 0.5 mM NADP^+, by placing on ice and quantified by measuring production of NADPH by absorbance at 340 nm. Kinetic parameters of purified recombinant GmPDH1 and MtPDH1 for PDH activity (Table 3) were determined from assays conducted using varying prephenate concentrations (29 μM to 3.5 mM). Assays with 0.5 mM NADP^+ were monitored continuously at 340 nm using a microplate reader (Tecan GENios, Zurich, Switzerland) for 7 min. Kinetic parameters were determined using hyperbolic regression analysis in Hyper (http://homepage.ntlworld.com/john.eastetby/software.html). Enzyme assays were carried out at a protein concentration and reaction time that were in the linear range and proportional to reaction velocity. The final enzyme concentrations of the purified recombinant GmPDH1 and MtPDH1 were 0.9 μg/ml and 0.7 μg/ml for PDH activity and 3.0 μg/ml and 1.4 μg/ml for ADH activity, respectively.

[2] = Kinetic analysis of purified recombinant enzymes, ADH activity; type: biochemical; conditions: substrate L-arogenate (ADH activity), 37° C., 0.5 mM NADP+, mean ± s.e.m.
Method: as §1

[3] = Substrate and electron acceptor preference of purified recombinant enzymes, PDH activity; type: biochemical; conditions: with NADP+ and to a lesser extent NAD+
Method: (§2) To test the electron acceptor and substrate preference of purified recombinant enzymes (FIG. 12), we incubated reactions for 15 min with 1.5 mM substrate (L-arogenate or prephenate) and 1 mM cofactor (NAD^+ or NADP^+). Assays were conducted with decreasing enzyme concentrations and stopped by placing on ice, and the production of reduced cofactor, NAD(P)H, was Measured at 340 nm using a spectrophotometer (NanoDrop 2000, Thermo).

[4] = Inhibition analysis: effect of HPP on PDH activity of purified recombinant enzymes; type: biochemical; conditions: purified recombinant enzyme
Method: (§3) ADH and PDH reactions using GmPDH1, Glyma11g35760, MtPDH1 and AtADH2 (FIG. 5A) contained 200 mM HEPES (pH 7.3), 50 mM KCl, 10% ethylene glycol, 1 mN4 NADP^+ and 1 mM substrate (L-arogenate or prephenate, respectively). Reactions were started by addition of enzyme and incubated at 37° C. for 15 min in the presence of increasing concentrations of effectors: L-Tyr FIG. 5A), L-Phe, L-Trp and HPP. Tyr was dissolved in basic conditions (0.025 N NaOH) to dissolve at high concentrations (up to 10 mM), though 200 mM HEPES maintained the final reaction pH at 7.6. Tyr sensitivity of purified recombinant GmPDH1 and MtPDH1 was also tested at prephenate concentrations ranging from […] to 59 μM, below the K values for GmPDH1 and MtPDH1, while keeping the L-Tyr concentration constant at 1 mM (FIG. 13). Enzyme activity was measured for the production of reduced cofactor (NADPH) at 340 nm using a spectrophotometer, except for crude soybean extracts, which were analyzed by HPLC after 45 min incubation and reduction to HPLA as described above.

[5] = Inhibition analysis: effect of L-Trp on PDH activity of purified recombinant enzymes; type: biochemical; conditions: purified recombinant enzyme
Method: as §3

[6] = Qualitative HPLC detection of PDH activity in E. coli cell lysates expressing candidate enzymes; type: biochemical; conditions: 2 mM prephenate, saturating conditions
Method: ADH and PDH reactions contained 25 mM HEPES (pH 7.5), 50 mM KCl, 10% ethylene glycol, 1 mM NADP (or NAD^+), 2 mM substrate (L-arogenate or prephenate, respectively) unless otherwise noted. Arogenate was prepared by enzymatic conversion from prephenate (Sigma-Aldrich), as previously reported. Reactions were started by addition of enzyme from various sources and incubated at 37′ C. for a given amount of time, as noted below,
HPLC-based methods were used to directly detect the final products of ADH and PDH assays, Tyr and HPP, respectively from crude E. coli extracts (FIG. 3B and FIG. 3C) and crude plant extracts (FIG. 2A and FIG. 6). For HPLC detection of PDH activity, reactions were incubated for 45 min and terminated by addition of NaBH4, which converts the reaction product HPP (which produced multiple peaks; FIG. 6) into hydroxyphenyllactic acid (HPLA), followed by neutralization with 100 μl of 6 N HCl. The conversion and recovery rate was 80±1.5% s.d. which was taken into account for the calculation of specific activity from crude plant extracts (FIG. 2C). HPLA was detected as a single peak (FIG. 2A) after being separated by HPLC (Agilent 1260, Santa Clara, Calif.) equipped with a ZORBA X SB-C18 column (Agitent) using a 6-min isocratic elution at 25% methanol in 0.1% phosphoric acid, followed by a 20-min linear gradient of 25-60% methanol at a flow rate of 1.0 ml/min. HPLA was detected using UV absorbance at 270 nm and quantified by a calibration curve generated from the authentic HPLA standard (Sigma-Aldrich). For HPLC-based detection of ADH activity (FIG. 3B), reactions were incubated for 45 min and terminated by addition of methanol to a final concentration of 66% (v/v). The product, Tyr, was derivatized with OPA and separated on a ZORBAX eclipse-XDB C18 column (Agilent) using a 30-min linear gradient of 20-45% methanol in 0.1% animonium acetate at a flow rate of 0.8 ml/min. Tyr was detected by UV absorption at 336 nm and quantified on the basis of a calibration curve generated by the authentic Tyr standard (Acros, Geel, Belgium).
The crude enzyme extracts were first subjected to PDH and ADH assays using saturating conditions to screen for any detectable PDH and/or ADH activity (FIG. 3B and FIG. 3C). ADH activity was detected from all five candidates. In contrast, PDH activity was detected only in Glyma11a35760 and Glyma18g02650 as well as their closest homolog from Medicago (Mt3g071980) but not in Glyma5g07870, Glyma17g13150 and Glyma14g05990 (FIG. 3C).

[7] = Inhibition analysis: L-Tyr sensitivity of PDH activity of purified recombinant GmPDH1 and MtPDH1; type: biochemical; conditions: for effect of L-Tyr on PDH activity at low (non-saturating) prephenate concentrations: 1 mM L-Tyr, prephenate 15 mM to 59 μM; for effect of L-Tyr on PDH activity at low (non-saturating) prephenate concentrations / PDH activity: 1 mM NADP+; for PDH activity: purified recombinant enzyme, 1 mM prephenate; for inhibition of PDH activity by L-Tyr: up to 10 mM of L-Tyr
Method: as §3

[8] = Inhibition analysis: effect of L-Phe on PDH activity of purified recombinant enzymes; type: biochemical; conditions: purified recombinant enzyme
Method: as §3

[9] = Substrate and electron acceptor preference of purified recombinant enzymes, ADH activity; type: biochemical; conditions: with NADP+ or NAD+, compared with PDH activity
Method: as §2

[10] = literature values; read-out: Km for prephenate of other plant and microbial PDHs; cited from earlier work
[11] = cofactor NADP+, read-out: apparent Km for prephenate
[12] = substrate prephenate (PDH activity), 37° C., 0.5 mM NADP+, mean ± s.e.m.
[13] = substrate prephenate (PDH activity), 37° C., 0.5 mM NADP+, mean ± s.e.m., read-out: Km

B1: GmPDH1: soybean prephenate dehydrogenase enzyme, recombinant, insensitive to L-Tyr (protein)
chain: MSTSSSSQSLKIGIVGFGNFGQFLAKTMIKQGHTLTATSRSDYSELCLQMGIHFFRDVSAFLTADIDVIVLCTSILSLSEVVGSMPLTSLKRPTLFVDVLSVKEHPRELLLRELPEDSDILCTHPMFGPQTAKNGWTDHTFMYDKVRIRDEVICSNFIQIFATEGCKMVQMSCEEHDRAAAKSQFITHTIGRTLGEMDIQSTPIDTKGFETLVKLKETMMRNSFDLYSGLFVYNRFARQELENLEHALHKVKETLMIQRTNGEQGHKRTES
modifications: Glycine max
notes: soybean prephenate dehydrogenase enzyme, recombinant, insensitive to L-Tyr
[1]; [11]
  Km: 127 µM
[1]; [12]
  Vmax: 800 ± 21 nKat mg^−1
  kcat: 26.3 ± 0.7 s⁻¹
[1]; substrate prephenate (PDH activity), 37° C., 0.5 mM NADP+, mean ± s.e.m., listed as Glyma18g02650
  kcat: 26 s⁻¹
[1]; [13]
  Km: 127 ± 20 µM
[2]
  Km: 17000 µM
  Vmax: 307 ± 56 nKat mg^−1
  kcat: 10.1 ± 1.8 s⁻¹
[3]
  PDH activity of purified recombinant enzyme: strong PDH activity
[4]
  effect of HPP on PDH activity: did not reduce; also recorded: None of the tested molecules significantly reduced PDH activity
[5]
  effect of L-Trp on PDH activity: did not reduce; also recorded: None of the tested molecules significantly reduced PDH activity
[6]
  PDH activity (qualitative detection): detected
[7]
  effect of L-Tyr on PDH activity at low (non-saturating) prephenate concentrations: did not affect; also recorded: no effect
  inhibition of PDH activity by L-Tyr: not inhibited
[7]; L-Tyr 0 mM
  PDH activity: 1059 ± 69 nKat/mg
[7]; L-Tyr 0.01 mM
  PDH activity: 1064 ± 52 nKat/mg
[7]; L-Tyr 0.1 mM
  PDH activity: 1103 ± 55 nKat/mg
[7]; L-Tyr 1.0 mM
  PDH activity: 1065 ± 44 nKat/mg
[7]; L-Tyr 10 mM
  PDH activity: 1152 ± 101 nKat/mg
[8]
  effect of L-Phe on PDH activity: did not reduce; also recorded: None of the tested molecules significantly reduced PDH activity
[9]
  ADH activity of purified recombinant enzyme: much weaker ADH activity

B2: M. tuberculosis PDH: microbial prephenate dehydrogenase from the literature (protein, UniProt O69721 1-323, looked up)
Prephenate dehydrogenase: MTRTVAAPPVCVLGLGLIGGSIMRAAAAAGREVFGYNRSVEGAHGARSDGFDAITDLNQTLTRAAATEALIVLAVPMPALPGMLAHIRKSAPGCPLTDVTSVKCAVLDEVTAAGLQARYVGGHPMTGTAHSGWTAGHGGLFNRAPWVVSVDDHVDPTVWSMVMTLALDCGAMVVPAKSDEHDAAAAAVSHLPHLLAEALAVTAAEVPLAFALAAGSFRDATRVAATAPDLVRAMCEANTGQLAPAADRIIDLLSRARDSLQSHGSIADLADAGHAARTRYDSFPRSDIVTVVIGADKWREQLAAAGRAGGVITSALPSLDSPQ
[10]
  Km: 410 µM

B3: MtPDH1: Medicago truncatula prephenate dehydrogenase enzyme, recombinant, insensitive to L-Tyr (protein, listed as Medicago truncatula)
chain: MSSSSKSLKIGIVGFGTFGQFLANTMIKQGHTLTATSRTDYSQLCDQMGIHFFRDITAFLDADMDVILLCTSISSLSEVVGSMPLACLKRPTLFVDVLSVKEHPKNLLLKVLPEESDILCTHPMFGPVSGKNGWQNLTFMFDKVRIKDEVTCSKFLQIFASEGCKMVEMSCEEHDKAAAKSQFITHTIGRTLAEMDIKSTPIDTKGFQTLVELKKPVMGCSFDLYSGLFVYNRFARQELENLEHALHKVKEMLVQRIDEGQNPERTES
[1]; [11]
  Km: 223 µM
[1]; [12]
  Vmax: 655 ± 73 nKat mg^−1
  kcat: 21.8 ± 2.4 s⁻¹
[1]; substrate prephenate (PDH activity), 37° C., 0.5 mM NADP+, mean ± s.e.m., listed as Mt3g071980
  kcat: 22 s⁻¹
[1]; [13]
  Km: 223 ± 20 µM
[2]
  Km: 42500 ± 21800 µM
  Vmax: 229 ± 96 nKat mg^−1
  kcat: 5.5 ± 3.2 s⁻¹
[2]; listed as Mt3g071980
  Km: 43000 µM
[3]
  PDH activity of purified recombinant enzyme: strong PDH activity
[4]
  effect of HPP on PDH activity: did not reduce; also recorded: None of the tested molecules significantly reduced PDH activity
[5]
  effect of L-Trp on PDH activity: did not reduce; also recorded: None of the tested molecules significantly reduced PDH activity
[6]
  PDH activity (qualitative detection): detected
[7]
  effect of L-Tyr on PDH activity at low (non-saturating) prephenate concentrations: did not affect; also recorded: no effect
  inhibition of PDH activity by L-Tyr: not inhibited
[7]; L-Tyr 0 mM
  PDH activity: 579 ± 28 nKat/mg
[7]; L-Tyr 0.01 mM
  PDH activity: 604 ± 22 nKat/mg
[7]; L-Tyr 0.1 mM
  PDH activity: 610 ± 7 nKat/mg
[7]; L-Tyr 1.0 mM
  PDH activity: 641 ± 19 nKat/mg
[7]; L-Tyr 10 mM
  PDH activity: 652 ± 56 nKat/mg
[8]
  effect of L-Phe on PDH activity: did not reduce; also recorded: None of the tested molecules significantly reduced PDH activity
[9]
  ADH activity of purified recombinant enzyme: much weaker ADH activity

From patent publication US20150150157A1, “PREPHENATE DEHYDROGENASES AND AROGENATE DEHYDROGENASES THAT ARE INSENSITIVE TO EFFECTOR FEEDBACK INHIBITION AND METHODS OF USING THE SAME” (Wisconsin Alumni Research Foundation, priority 2013, published 2015)
